Results as given in FireProtDB (doi:10.1021/bi0362267).

B1: Ribonuclease, P00648 (parent)
chain: MMKMEGIALKKRLSWISVCLLVLVSAAGMLFSTAAKTETSSHKAHTEAQVINTFDGVADYLQTYHKLPDNYITKSEAQALGWVASKGNLADVAPGKSIGGDIFSNREGKLPGKSGRTWREADINYTSGFRNSDRILYSSDWLIYKTTDHYQTFTKIR

Variants of: B1
Conditions: Bacillus amyloliquefaciens, pH 6.3, Thermal, CD, Mes 50 mM, structure 1BNI, whole UniProt chain shown; for ddG of mutation (higher = less stable) / unfolding free energy: 25 °C

## MMKMEGIALKKRLSWISVCLLVLVSAAGMLFSTAAKTETSSHKAHTEAQVINTFDGVAGYLQTYHKLPDNYITKSEAQALGWVASKGNLADVAPGKSIGGDIFSNREGKLPGKSGRTWREADINYTSGFRNSDRILYSSDWLIYKTTDHYQTFTKIR
  ddG of mutation (higher = less stable): 1.2 kcal/mol
  unfolding free energy: 8.3 kcal/mol
  Tm: 50 °C
  change of melting temperature, mutant - wild type (higher = more stable): -2.3 °C
  unfolding enthalpy (van 't Hoff): 129 kcal/mol

## MMKMEGIALKKRLSWISVCLLVLVSAAGMLFSTAAKTETSSHKAHTEAQVINTFDGVAAYLQTYHKLPDNYITKSEAQALGWVASKGNLADVAPGKSIGGDIFSNREGKLPGKSGRTWREADINYTSGFRNSDRILYSSDWLIYKTTDHYQTFTKIR
  ddG of mutation (higher = less stable): -1.1 kcal/mol
  unfolding free energy: 10.6 kcal/mol
  Tm: 51.2 °C
  change of melting temperature, mutant - wild type (higher = more stable): -1 °C
  unfolding enthalpy (van 't Hoff): 153 kcal/mol

## MMKMEGIALKKRLSWISVCLLVLVSAAGMLFSTAAKTETSSHKAHTEAQVINTFDGVADYLQTYHKLPDNYITKSEAQALGWVASKGNLADVAPGKSIGGDIFSNREGKLPGKSGRTWREADINYTSGFRNSDRIGYSSDWLIYKTTDHYQTFTKIR
  ddG of mutation (higher = less stable): 7 kcal/mol
  unfolding free energy: 2.5 kcal/mol
  Tm: 43.5 °C
  change of melting temperature, mutant - wild type (higher = more stable): -8.7 °C
  unfolding enthalpy (van 't Hoff): 58.5 kcal/mol

## MMKMEGIALKKRLSWISVCLLVLVSAAGMLFSTAAKTETSSHKAHTEAQVINTFDGVADYLQTYHKLPDNYITKSEAQALGWVASKGNLADVAPGKSIGGDIFSNREGKLPGKSGRTWREADINYTSGFRNSDRILYSSDWLIYKTGDHYQTFTKIR
  ddG of mutation (higher = less stable): 2.8 kcal/mol
  unfolding free energy: 6.7 kcal/mol

## MMKMEGIALKKRLSWISVCLLVLVSAAGMLFSTAAKTETSSHKAHTEAQVINTFDGVADYLQTGHKLPDNYITKSEAQALGWVASKGNLADVAPGKSIGGDIFSNREGKLPGKSGRTWREADINYTSGFRNSDRILYSSDWLIYKTTDHYQTFTKIR
  Tm: 42 °C
  change of melting temperature, mutant - wild type (higher = more stable): -10.3 °C
  unfolding enthalpy (van 't Hoff): 117 kcal/mol

## MMKMEGIALKKRLSWISVCLLVLVSAAGMLFSTAAKTETSSHKAHTEAQVINTFDGVADYLQTYHKLPDNYITKSEAQALGWVASKGNLADVAPGKSIGGDIFSNREGKLPGKSGRTWREADINYTSGFRNSDRILYSSDWLIGKTTDHYQTFTKIR
  ddG of mutation (higher = less stable): 6.6 kcal/mol
  unfolding free energy: 2.9 kcal/mol
  Tm: 34.4 °C
  change of melting temperature, mutant - wild type (higher = more stable): -17.9 °C
  unfolding enthalpy (van 't Hoff): 103 kcal/mol

## MMKMEGIALKKRLSWISVCLLVLVSAAGMLFSTAAKTETSSHKAHTEAQVINTFDGVADGLQTYHKLPDNYITKSEAQALGWVASKGNLADVAPGKSIGGDIFSNREGKLPGKSGRTWREADINYTSGFRNSDRILYSSDWLIYKTTDHYQTFTKIR
  ddG of mutation (higher = less stable): 6.4 kcal/mol
  unfolding free energy: 3.1 kcal/mol
  Tm: 36.6 °C
  change of melting temperature, mutant - wild type (higher = more stable): -15.6 °C
  unfolding enthalpy (van 't Hoff): 92.7 kcal/mol

## MMKMEGIALKKRLSWISVCLLVLVSAAGMLFSTAAKTETSSHKAHTEAQVINTFDGVADYLQTYHKLPDNYITKSEAQALGWVASKGNLADVAPGKSIGGDIFSNREGKLPGKSGRTWRGADINYTSGFRNSDRILYSSDWLIYKTTDHYQTFTKIR
  Tm: 39.5 °C
  change of melting temperature, mutant - wild type (higher = more stable): -12.7 °C
  unfolding enthalpy (van 't Hoff): 101 kcal/mol

## MMKMEGIALKKRLSWISVCLLVLVSAAGMLFSTAAKTETSSHKAHTEAQVINTFDGVADYLATYHKLPDNYITKSEAQALGWVASKGNLADVAPGKSIGGDIFSNREGKLPGKSGRTWREADINYTSGFRNSDRILYSSDWLIYKTTDHYQTFTKIR
  ddG of mutation (higher = less stable): 0.2 kcal/mol
  unfolding free energy: 9.3 kcal/mol
  Tm: 51.4 °C
  change of melting temperature, mutant - wild type (higher = more stable): -0.9 °C
  unfolding enthalpy (van 't Hoff): 137 kcal/mol

## MMKMEGIALKKRLSWISVCLLVLVSAAGMLFSTAAKTETSSHKAHTEAQVINTFDGVADYLGTYHKLPDNYITKSEAQALGWVASKGNLADVAPGKSIGGDIFSNREGKLPGKSGRTWREADINYTSGFRNSDRILYSSDWLIYKTTDHYQTFTKIR
  ddG of mutation (higher = less stable): 1.6 kcal/mol
  unfolding free energy: 7.9 kcal/mol
  Tm: 50.2 °C
  change of melting temperature, mutant - wild type (higher = more stable): -2 °C
  unfolding enthalpy (van 't Hoff): 123 kcal/mol

## MMKMEGIALKKRLSWISVCLLVLVSAAGMLFSTAAKTETSSHKAHTEAQVINTFDGVADYLQTYHKLPDNYITKSEAQALGWVASKGNLADVAPGKSIGGDIFSNREGKLPGKSGRTWREADINYTSGFRNSDRILYSSDWLGYKTTDHYQTFTKIR
  Tm: 36.5 °C
  change of melting temperature, mutant - wild type (higher = more stable): -15.7 °C
  unfolding enthalpy (van 't Hoff): 110 kcal/mol

## MMKMEGIALKKRLSWISVCLLVLVSAAGMLFSTAAKTETSSHKAHTEAQVINTFDGVADYLQTYHKLPDNYITKSEAQALGWVASKGNLADVAPGKSIGGDGFSNREGKLPGKSGRTWREADINYTSGFRNSDRILYSSDWLIYKTTDHYQTFTKIR
  ddG of mutation (higher = less stable): 3.1 kcal/mol
  unfolding free energy: 6.4 kcal/mol

## MMKMEGIALKKRLSWISVCLLVLVSAAGMLFSTAAKTETSSHKAHTEAQVINTFDGVADYLQTYHKLPDNYITKSEAQALGWVASKGNLADVAPGKSIGGDIFSNREGKLPGKSGRTWREADINYTSGFRNSDRGLYSSDWLIYKTTDHYQTFTKIR
  ddG of mutation (higher = less stable): 7.4 kcal/mol
  unfolding free energy: 2.1 kcal/mol
  Tm: 31.4 °C
  change of melting temperature, mutant - wild type (higher = more stable): -20.8 °C
  unfolding enthalpy (van 't Hoff): 100 kcal/mol

## MMKMEGIALKKRLSWISVCLLVLVSAAGMLFSTAAKTETSSHKAHTEAQVINTFDGVADYLQTYHKLPDNYITKSEAQALGWVASKGNLADVAPGKSIGGDIFSNREGKLPGKSGRTWREADINYTSGFRNSDRILYSSDWGIYKTTDHYQTFTKIR
  ddG of mutation (higher = less stable): 4.7 kcal/mol
  unfolding free energy: 4.8 kcal/mol
  Tm: 43.1 °C
  change of melting temperature, mutant - wild type (higher = more stable): -9.1 °C
  unfolding enthalpy (van 't Hoff): 98.5 kcal/mol

## MMKMEGIALKKRLSWISVCLLVLVSAAGMLFSTAAKTETSSHKAHTEAQVINTFDGVADYLQTYHKLPDNYITKSEAQALGWVASKGNLADVAPGKSIGGDIFSNREGKLPGKSGRTWGEADINYTSGFRNSDRILYSSDWLIYKTTDHYQTFTKIR
  ddG of mutation (higher = less stable): 2.5 kcal/mol
  unfolding free energy: 7 kcal/mol
  Tm: 46.5 °C
  change of melting temperature, mutant - wild type (higher = more stable): -5.7 °C
  unfolding enthalpy (van 't Hoff): 123 kcal/mol
